Measurements reported in publication doi:10.1101/091884 (bioRxiv, 2016).

Legend:
Test in all cases: SEC + other: SDS-PAGE
[1] = target: B. amyloliquefaciens BslA_(42-181) (Bacillus amyloliquefaciens FZB42)
[2] = target: B. licheniformis BslA_(40-17g) (Bacillus licheniformis DSM13)
[3] = target: B. pumilus BslA_(37-177) (Bacillus pumilus SAFR-032)
[4] = target: the molecule itself

“B. amyloliquefaciens BslA_(42-181) (domain or fragment)” showed a stoichiometry N [1] of 2.

“B. licheniformis BslA_(40-17g) (domain or fragment)” gave a stoichiometry N [2] of 2.

In the case of “B. pumilus BslA_(37-177) (domain or fragment)”, the stoichiometry N [3] is reported as 2.

B1: B. subtilis BslA_(42-181) (domain or fragment, Bacillus subtilis, UniProt P71014 42-181, looked up)
chain: MRTQSTASLFATITGASKTEWSFSDIELTYRPNTLLSLGVMEFTLPSGFTANTKDTLNGNALRTTQILNNGKTVRVPLALDLLGAGEFKLKLNNKTLPAAGTYTFRAENKSLSIGNKFYAEASIDVAKRSTPPTQPCGCN
For B1, the “stoichiometry N” value [4] was 2.
